Measured values: patent US20190309056A1 (VIB VZW, published 2019)

Molecular target: T1, recombinant human Macrophage Migration Inhibitory Factor (MIF 2-115) (human, UniProt P14174 2-115)
T1 construct: rhMIF bought from R&D Systems; The background describes MIF as a homotrimer but also as monomer, dimer or higher oligomers; In the cell assays (THP-1, human PBMC) the MIF is the cells' own; also called rhMIF; human MIF
Assay: SPR (BIAcore T200), rhMIF immobilised on CM5 chip, 1:1 Langmuir model
Protocol: Surface plasmon resonance (SPR) experiments were performed on a BIAcore T200 system (GE Healthcare). Recombinant mouse MIF (rmMIF) or rhMIF (R&D systems) was immobilized on a CM5 chip (GE Healthcare). Briefly, the carboxylated dextran matrix was activated by injection of 0.2 M N-ethyl-N′-(3-[…]) carbodiimide (EDC) and 0.05 M N-hydroxysuccinimide (NHS) at a flow rate of 5 μl/min for 7 min. A rmMIF solution of 5 μg/ml prepared in coupling buffer (50 mM sodium acetate pH 4.0) was subsequently injected until 200 R.U. was immobilised. Next, the surface immobilisation was blocked by injection of 1 M ethanolamine hydrochloride for 7 min. As a reference, the surface in another flow cell was used and treated only with EDC, NHS, and ethanolamine. Data for the rmMIF-ISVD interaction were collected in the format of a kinetic titration (27). […] Analyte injections were performed with association phases of 180 s and a dissociation phase of 600 s. This was followed by 5 pulses of 15 μl regeneration buffer (HBS+100 mM NaOH). Prior to data analysis, reference and zero concentration data were subtracted from the sensorgrams. The data were analyzed with a 1:1 Langmuir binding model (27). Data for the rhMIF-ISVD interaction were collected as described elsewhere (28) and analyzed with a 1:1 Langmuir binding model.

T1 sequence (P14174 2-115): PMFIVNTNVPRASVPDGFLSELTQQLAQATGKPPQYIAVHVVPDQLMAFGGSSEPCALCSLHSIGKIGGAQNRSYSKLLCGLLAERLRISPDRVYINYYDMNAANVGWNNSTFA

Row | Binder | Kd [nM]
1 | anti-MIF ISVD D12 (VHH, Family VI; Expressed from pAX100, purified by IMAC) VHH: EVQLVESGGGLVQAGGSLRLSCAASGRTISSYIVGWFRQAPGKEREFVANIGWSGSMPLYADSVKGRFTIFRDNAKNTVYLEMNKLKPEDTAVYYCAARGAGQLTNDYWGQGTQVTVSS | 166
2 | anti-MIF ISVD E5 (VHH, Family V. Expressed from pAX100, purified by IMAC; also called Nb E5) VHH: EVQLVESGGGLVHAGGSLRLSCAASGRTFSSYFMGWFRQAPGKAREFVANINFSGGTTVYASSVKGRFTISRDNSKNTVYLQMNSVKPEDTAVYYCVARGLTQDYDYWGQGTQVTVSS | 9.41
3 | anti-MIF ISVD D4 (VHH, Family III; Expressed from pAX100, purified by IMAC) VHH: KVQLVESGGGLVQDGGSLRLSCAASGRTASIQVMGWFRQAPGKEREFVGNIGWNYGLTLYPDSVKGRFTISRDNAKNTVYLQMNNLKPEDTAVYYCAARIGTTTYDYWGQGTQVTVSS | 35
4 | anti-MIF ISVD A2 (VHH, Family III; Expressed from pAX100, purified by IMAC) VHH: EVQLVESGGGLVQDGGSLRLSCAASGRTASIQVMGWFRQAPGKEREFVGNIGWNYGLTLYADPVKGRFTISRDNAKNTVYLQMNNLKPEDTAVYYCAARIGTITYDYWGQGTQVTVSS | 2.96
5 | anti-MIF ISVD E10 (VHH, Family VII; Monovalent llama VHH expressed in E. coli from pAX100 and purified by IMAC (His-Trap) and gel filtration; also called Nb E10; monovalent E10) VHH: EVQLVESGGGSVQAGDSLRLSCAASGRTLSNSIMGWFRQAPGKEREFVANINWSGTSRLYADSVKGRFTISRDNTKSTVYLQMNSLKPEDTAIYYCAARSSTMSATDYWGQGTQVTVSS | 64.5
6 | anti-MIF ISVD B5 (VHH, Family I. Expressed from pAX100, purified by IMAC) VHH: EVQLVESGGGLVQAGGSLRLSCAASGRSFSNYIMGWFRQAPGKEREFVANISWNYGTTFYADSVKGRFTISGDSAKNTVYLQMTSLKPEDTAVYYCAARPVRGGRNFDYWGQGTQVTVSS | 37.8
7 | anti-MIF ISVD C10 (VHH, Family II; Expressed from pAX100, purified by IMAC) VHH: EVQLVESGGGLVQAGGSLRLSCAASGRTSSIVAIGWFRQAPGKEREFVSNIGWKFGSTVYVDSVKGRFTISKDNAKNTVYLQMNSLKPEDTAVYRCAARSDGRVYDSWGQGTQVTVSS | 41.2

Next, values leading:

Row | Kd [nM] | Binder
8 | 80.3 | anti-MIF ISVD H9 (VHH, Family V. Expressed from pAX100, purified by IMAC) VHH: EVQLVESGGGLVHAGGSLRLSCAASGRTSSTYFMGWFRQAPGKAREFVANINFSGGTTVYASSVKGRFTISRDNSKNTVYLQLNSVKPEDTAVYYCSARGLNQEYDFWGQGTQVTVSS
9 | 27.5 | anti-MIF ISVD H5 (VHH, Family IV; Expressed from pAX100, purified by IMAC) VHH: EVQLVESGGGLVQPGGSLRLSCVASGFTFRTYAMSWVRQAPGKGSEWVSTINNGGGVTGYADSVEGRFTISRDNAKNTLYLQMNSLKPEDTAVYYCAKGTSRGQGTQVTVSS
10 | 16.5 | anti-MIF ISVD D2 (VHH, Family III; Expressed from pAX100, purified by IMAC) VHH: EVQLVESGGGLVQDGGSLRLSCAASGRTASIHTMGWFRQAPGQERGFVGNIGWNYGLTLYADSVKGRFTISRDNAKNTVYLQMNNLKPEDTAVYYCAARIGTTPYDYWGQGTQVTVSS

Molecular target: T1, recombinant human Macrophage Migration …
Assay: SPR (summary in the discussion)

Row | binding result | Binder
11 | binds | anti-MIF ISVD F10 (VHH, Family III; Expressed from pAX100, purified by IMAC) VHH: EVQLVESGGGLVQDGGSLRLSCAASGRTASIQVMGWFRQAPGKEREFVGNIGWNYGLTLYPDSVKGRFTISRGNAKNAVYLQMNNLKPEDTAVYYCAARIGTTTYDYWGQGTQVTVSS
